The supplement of paper PMC10567573

B1: C8orf76 (parent)
chain: YCAKLCEPQWFYEETESSDDVEVL

Variants of: B1
Assay: protein stability index of a GFP-peptide fusion (GPS, HEK-293T) (PSI 1-6); higher = more stable
Details: c terminus: a fixed tail appended
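Further: lentivirally expressed fusions sorted by FACS into six bins by GFP to DsRed ratio, PSI derived from sequencing read proportions per bin multiplied by bin number.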

Row | Variant | protein stability index
1 | YCAKLCEPQWFYEETMSSDDVEVL | 2.31
2 | YCAKLCEPQWFYEETPSSDDVEVL | 1.65
3 | YCAKLCEPQWFYEETSSSDDVEVL | 1.74
4 | YCAKLCEPQWFYEETKSSDDVEVL | 2.28
5 | YCAKLCEPQWFYEETGSSDDVEVL | 1.87
6 | YCAKLCEPQWFYEETCSSDDVEVL | 1.58
7 | YCAKLCEPQWFYEETQSSDDVEVL | 1.54
8 | YCAKLCEPQWFYEETVSSDDVEVL | 1.53
9 | YCAKLCEPQWFYEETYSSDDVEVL | 2.59
10 | YCAKLCEPQWFYEETASSDDVEVL | 2.25
11 | YCAKLCEPQWFYEETNSSDDVEVL | 1.89
12 | YCAKLCEPQWFYEETDSSDDVEVL | 2.41
13 | YCAKLCEPQWFYEETRSSDDVEVL | 1.77
14 | YCAKLCEPQWFYEETFSSDDVEVL | 2.19
15 | YCAKLCEPQWFYEETLSSDDVEVL | 3.46
16 | YCAKLCEPQWFYEETHSSDDVEVL | 3.15
17 | YCAKLCEPQWFYEETISSDDVEVL | 2.14
18 | YCAKLCEPQWFYEETWSSDDVEVL | 1.65
19 | YCAKLCEPQWFYEETTSSDDVEVL | 2.22
20 | YCAKLCEPQWFYEETESPDDVEVL | 2.3
21 | YCAKLCEPQWFYEETESQDDVEVL | 2.38
22 | YCAKLCEPQWFYEETESTDDVEVL | 2.11
23 | YCAKLCEPQWFYEETESADDVEVL | 2.54
24 | YCAKLCEPQWFYEETESMDDVEVL | 2.34

Row | Variant | protein stability index
25 | YCAKLCEPQWFYEETESLDDVEVL | 2.23
26 | YCAKLCEPQWFYEETESRDDVEVL | 2
27 | YCAKLCEPQWFYEETESYDDVEVL | 2.29
28 | YCAKLCEPQWFYEETESCDDVEVL | 2.13
29 | YCAKLCEPQWFYEETESKDDVEVL | 2.28
30 | YCAKLCEPQWFYEETESFDDVEVL | 1.49
31 | YCAKLCEPQWFYEETESNDDVEVL | 2.33
32 | YCAKLCEPQWFYEETESDDDVEVL | 2.6
33 | YCAKLCEPQWFYEETESHDDVEVL | 2.06
34 | YCAKLCEPQWFYEETESVDDVEVL | 2.1
35 | YCAKLCEPQWFYEETESGDDVEVL | 2.39
36 | YCAKLCEPQWFYEETESEDDVEVL | 2.54
37 | YCAKLCEPQWFYEETESIDDVEVL | 1.88
38 | YCAKLCEPQWFYEETESSDDYEVL | 2.48
39 | YCAKLCEPQWFYEETESSDDKEVL | 2.99
40 | YCAKLCEPQWFYEETESSDDWEVL | 2.04
41 | YCAKLCEPQWFYEETESSDDTEVL | 3.28
42 | YCAKLCEPQWFYEETESSDDAEVL | 2.3
43 | YCAKLCEPQWFYEETESSDDDEVL | 2.53
44 | YCAKLCEPQWFYEETESSDDIEVL | 2.39
45 | YCAKLCEPQWFYEETESSDDNEVL | 2.35
46 | YCAKLCEPQWFYEETESSDDPEVL | 2.38
47 | YCAKLCEPQWFYEETESSDDCEVL | 2.41
48 | YCAKLCEPQWFYEETESSDDHEVL | 2.27

Row | Variant | protein stability index
49 | YCAKLCEPQWFYEETESSDDGEVL | 2.56
50 | YCAKLCEPQWFYEETESSDDREVL | 2.27
51 | YCAKLCEPQWFYEETESSDDFEVL | 2.12
52 | YCAKLCEPQWFYEETESSDDLEVL | 2.07
53 | YCAKLCEPQWFYEETESSDDMEVL | 2.19
54 | YCAKLCEPQWFYEETESSDDQEVL | 2.53
55 | YCAKLCEPQWFYEETESSDDEEVL | 2.43
56 | YCAKLCEPQWFYEETESSDDSEVL | 2.46
57 | YCAKLCEPQWFYTETESSDDVEVL | 2.1
58 | YCAKLCEPQWFYHETESSDDVEVL | 1.91
59 | YCAKLCEPQWFYSETESSDDVEVL | 2.51
60 | YCAKLCEPQWFYKETESSDDVEVL | 1.42
61 | YCAKLCEPQWFYLETESSDDVEVL | 2.12
62 | YCAKLCEPQWFYVETESSDDVEVL | 1.57
63 | YCAKLCEPQWFYQETESSDDVEVL | 1.65
64 | YCAKLCEPQWFYRETESSDDVEVL | 1.64
65 | YCAKLCEPQWFYYETESSDDVEVL | 1.55
66 | YCAKLCEPQWFYPETESSDDVEVL | 1.92
67 | YCAKLCEPQWFYIETESSDDVEVL | 2.1
68 | YCAKLCEPQWFYWETESSDDVEVL | 1.8
69 | YCAKLCEPQWFYMETESSDDVEVL | 2.13
70 | YCAKLCEPQWFYNETESSDDVEVL | 1.6
71 | YCAKLCEPQWFYEETESSDFVEVL | 2.04
72 | YCAKLCEPQWFYEETESSDCVEVL | 2.49

Row | Variant | protein stability index
73 | YCAKLCEPQWFYEETESSDQVEVL | 1.86
74 | YCAKLCEPQWFYEETESSDPVEVL | 1.81
75 | YCAKLCEPQWFYEETESSDKVEVL | 2.01
76 | YCAKLCEPQWFYEETESSDMVEVL | 2.02
77 | YCAKLCEPQWFYEETESSDLVEVL | 1.67
78 | YCAKLCEPQWFYEETESSDNVEVL | 2.05
79 | YCAKLCEPQWFYEETESSDTVEVL | 2.18
80 | YCAKLCEPQWFYEETESSDAVEVL | 2.27
81 | YCAKLCEPQWFYEETESSDGVEVL | 1.37
82 | YCAKLCEPQWFYEETESSDVVEVL | 1.86
83 | YCAKLCEPQWFYEETESSDRVEVL | 1.5
84 | YCAKLCEPQWFYEETESSDHVEVL | 1.91
85 | YCAKLCEPQWFYEETESSDYVEVL | 1.76
86 | YCAKLCEPQWFYEETESSDSVEVL | 2.29
87 | YCAKLCEPQWFYEETESSDWVEVL | 1.79
88 | YCAKLCEPQWFYEETESSDEVEVL | 1.92
89 | YCAKLCEPQWFYEETESSDIVEVL | 1.74
90 | YCAKLCEPQWFYEETESSDDVEDL | 2.41
91 | YCAKLCEPQWFYEETESSDDVECL | 2.47
92 | YCAKLCEPQWFYEETESSDDVEEL | 2.33
93 | YCAKLCEPQWFYEETESSDDVEAL | 2.68
94 | YCAKLCEPQWFYEEKESSDDVEVL | 2.08
95 | YCAKLCEPQWFYEEMESSDDVEVL | 1.91
96 | YCAKLCEPQWFYEEIESSDDVEVL | 1.91

Row | Variant | protein stability index
97 | YCAKLCEPQWFYEEGESSDDVEVL | 2.27
98 | YCAKLCEPQWFYEESESSDDVEVL | 2.54
99 | YCAKLCEPQWFYEENESSDDVEVL | 2.08
100 | YCAKLCEPQWFYEEYESSDDVEVL | 1.96
101 | YCAKLCEPQWFYEEDESSDDVEVL | 2.9
102 | YCAKLCEPQWFYEEEESSDDVEVL | 2.72
103 | YCAKLCEPQWFYEEQESSDDVEVL | 2.43
104 | YCAKLCEPQWFYEEWESSDDVEVL | 1.81
105 | YCAKLCEPQWFYEECESSDDVEVL | 2.16
106 | YCAKLCEPQWFYEEFESSDDVEVL | 2.02
107 | YCAKLCEPQWFYEEPESSDDVEVL | 2.84
108 | YCAKLCEPQWFYEEVESSDDVEVL | 2.17
109 | YCAKLCEPQWFYEEAESSDDVEVL | 2.63
110 | YCAKLCEPQWFYEERESSDDVEVL | 2.9
111 | YCAKLCEPQWFYEEHESSDDVEVL | 2.12
112 | YCAKLCEPQWFYEELESSDDVEVL | 1.75
113 | YCAKLCEPQWFYEHTESSDDVEVL | 2.1
114 | YCAKLCEPQWFYEFTESSDDVEVL | 2.24
115 | YCAKLCEPQWFYENTESSDDVEVL | 2.37
116 | YCAKLCEPQWFYEMTESSDDVEVL | 2.78
117 | YCAKLCEPQWFYEATESSDDVEVL | 2.14
118 | YCAKLCEPQWFYEKTESSDDVEVL | 1.39
119 | YCAKLCEPQWFYEQTESSDDVEVL | 1.72
120 | YCAKLCEPQWFYEITESSDDVEVL | 1.23

Row | Variant | protein stability index
121 | YCAKLCEPQWFYEGTESSDDVEVL | 2.11
122 | YCAKLCEPQWFYELTESSDDVEVL | 2.29
123 | YCAKLCEPQWFYEDTESSDDVEVL | 2.36
124 | YCAKLCEPQWFYEYTESSDDVEVL | 2.04
125 | YCAKLCEPQWFYECTESSDDVEVL | 1.8
126 | YCAKLCEPQWFYETTESSDDVEVL | 2.17
127 | YCAKLCEPQWFYEPTESSDDVEVL | 1.84
128 | YCAKLCEPQWFYEWTESSDDVEVL | 1.46
129 | YCAKLCEPQWFYESTESSDDVEVL | 2.15
130 | YCAKLCEPQWFYERTESSDDVEVL | 1.8
131 | YCAKLCEPQWFYEVTESSDDVEVL | 1.86
132 | YCAKLCEPQWFYEETEPSDDVEVL | 2.34
133 | YCAKLCEPQWFYEETEQSDDVEVL | 2.35
134 | YCAKLCEPQWFYEETELSDDVEVL | 1.98
135 | YCAKLCEPQWFYEETEDSDDVEVL | 3.15
136 | YCAKLCEPQWFYEETEESDDVEVL | 2.85
137 | YCAKLCEPQWFYEETEYSDDVEVL | 2.24
138 | YCAKLCEPQWFYEETECSDDVEVL | 1.68
139 | YCAKLCEPQWFYEETEGSDDVEVL | 3.01
140 | YCAKLCEPQWFYEETEISDDVEVL | 1.83
141 | YCAKLCEPQWFYEETEVSDDVEVL | 2.25
142 | YCAKLCEPQWFYEETETSDDVEVL | 2.42
143 | YCAKLCEPQWFYEETEWSDDVEVL | 2.74
144 | YCAKLCEPQWFYEETENSDDVEVL | 2.4

Row | Variant | protein stability index
145 | YCAKLCEPQWFYEETEMSDDVEVL | 2.14
146 | YCAKLCEPQWFYEETERSDDVEVL | 2.25
147 | YCAKLCEPQWFYEETEHSDDVEVL | 1.87
148 | YCAKLCEPQWFYEETEKSDDVEVL | 2
149 | YCAKLCEPQWFYEETEASDDVEVL | 2.38
150 | YCAKLCEPQWFYEETEFSDDVEVL | 1.87
151 | YCAKLCEPQWFYEETESSDDVPVL | 2.33
152 | YCAKLCEPQWFYEETESSDDVTVL | 2.07
153 | YCAKLCEPQWFYEETESSDDVCVL | 2.06
154 | YCAKLCEPQWFYEETESSDDVAVL | 2.2
155 | YCAKLCEPQWFYEETESSDDVNVL | 2.14
156 | YCAKLCEPQWFYEETESSDDVKVL | 2.21
157 | YCAKLCEPQWFYEETESSDDVQVL | 2.61
158 | YCAKLCEPQWFYEETESSDDVVVL | 1.36
159 | YCAKLCEPQWFYEETESSDDVWVL | 2.28
160 | YCAKLCEPQWFYEETESSDDVSVL | 2.31
161 | YCAKLCEPQWFYEETESSDDVIVL | 2.03
162 | YCAKLCEPQWFYEETESSDDVRVL | 2.14
163 | YCAKLCEPQWFYEETESSDDVDVL | 1.98
164 | YCAKLCEPQWFYEETESSDDVLVL | 1.38
165 | YCAKLCEPQWFYEETESSDDVHVL | 2.06
166 | YCAKLCEPQWFYEETESSDDVGVL | 2.31
167 | YCAKLCEPQWFYEETESSDDVYVL | 1.63
168 | YCAKLCEPQWFYEETESSDDVFVL | 1.6

Row | Variant | protein stability index
169 | YCAKLCEPQWFYEETESSDDVMVL | 1.49
170 | YCAKLCEPQWFYEETESSMDVEVL | 1.58
171 | YCAKLCEPQWFYEETESSYDVEVL | 1.76
172 | YCAKLCEPQWFYEETESSGDVEVL | 2.09
173 | YCAKLCEPQWFYEETESSNDVEVL | 2.26
174 | YCAKLCEPQWFYEETESSQDVEVL | 2.2
175 | YCAKLCEPQWFYEETESSIDVEVL | 1.76
176 | YCAKLCEPQWFYEETESSKDVEVL | 2.3
177 | YCAKLCEPQWFYEETESSCDVEVL | 1.4
178 | YCAKLCEPQWFYEETESSFDVEVL | 2.1
179 | YCAKLCEPQWFYEETESSHDVEVL | 2.25
180 | YCAKLCEPQWFYEETESSSDVEVL | 2.08
181 | YCAKLCEPQWFYEETESSLDVEVL | 1.76
182 | YCAKLCEPQWFYEETESSTDVEVL | 2.19
183 | YCAKLCEPQWFYEETESSPDVEVL | 1.57
184 | YCAKLCEPQWFYEETESSRDVEVL | 2
185 | YCAKLCEPQWFYEETESSWDVEVL | 1.41
186 | YCAKLCEPQWFYEETESSEDVEVL | 2.35
187 | YCAKLCEPQWFYEETESSADVEVL | 2.15
188 | YCAKLCEPQWFYEETESSVDVEVL | 2.07
